Assay [1] concerns the target T1, human hepcidin-25 (human).
T1 construct: also called mature human hepcidin; human hepcidin-25 control peptide
T1 peptide: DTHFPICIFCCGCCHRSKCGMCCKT
Description: SPR. (SPR reads the build-up and loss of mass on a sensor chip optically.)

Assay [2] addresses T2, human hepcidin-20 (human).
T2 construct: Endogenous serum form (MW 2192 Da) in the MALDI-TOF experiments
T2 peptide: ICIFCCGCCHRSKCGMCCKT
As to the kind of experiment: SPR, 25 C, Mab captured.

Assay [3] concerns the target T3, mouse hepcidin-25 (mouse).
T3 peptide: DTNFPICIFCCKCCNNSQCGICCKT
As to the kind of experiment: SPR, 25 C.

Assay [4] addresses T4, human hepcidin-22 (human).
T4 construct: Endogenous serum form (MW 2436 Da) in the MALDI-TOF experiments
T4 peptide: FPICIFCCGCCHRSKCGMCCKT
As to the kind of experiment: SPR, 25 C.

Assay [5] has as its target T5, rat hepcidin-25 (rat).
T5 peptide: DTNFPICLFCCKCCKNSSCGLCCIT
As to the kind of experiment: SPR, 25 C.

Assay [6] addresses T1, human hepcidin-25. Description: SPR, Mab captured by anti-mouse IgG1 Fc. On the procedure: Briefly, on a Biacore® T100, goat anti-mouse IgG1 Fc polyclonal antibody was immobilized onto flow cell 1 to 4 of CMS chip at 5000-15000 response units (Ru). Mab 5E8 was captured on flow cell 2, Mab 4C11 was captured on flow cell 3, and Mab 3A9 was captured on flow cell 4. Flow cell 1 was used as a reference flow cell. All flow cells were then injected with human hepcidin-25.

The target of assay [7] is T2, human hepcidin-20. As to the kind of experiment: MSD sandwich immunoassay: Mab OH4 capture, ruthenium-labelled Mab 3.23 detection; no sandwich signal (assigned to the capture antibody OH4). On the procedure:
(§1) Streptavidin-coated and blocked wells of an ELISA plate were incubated for 1 hour with biotinylated Mab OH4 at a concentration of 2 mg/L. Afterward, wells were aspirated and washed three times with TBST (Tris buffered saline containing 10 mmol/L Tris pH 7.40, 150 mmol/L NaCl with 1 mL Tween 20/L). Next, 100 μL of hepcidin standards (varying concentrations of synthesized hepcidin-25 protein in assay buffer consisting of 50 mmol/L HEPES, pH 7.40, 150 mmol/L NaCl, 10 mL/L Triton X-100, 5 mmol/L EDTA, and 5 mmol/L EGTA) were added to the wells to generate a calibration curve. At the same time, serum samples were diluted 1:20 in assay buffer and added to their respective wells, and the ELISA plate was allowed to incubate for 1 hour at room temperature. […] Following aspiration, wells were washed three times with TBST, and the ELISA plate was developed using a MSD reader, which passed a voltage across the wells and recorded ruthenium electrochemiluminescence from each well. MSD software and SigmaPlot version 8.0 were used for fitting of the calibration curves for the ELISA.
(§2) Synthesized hepcidin-25 protein was prepared at a concentration of 10 μg/L and serially diluted to create a standard curve.

Assay [8] deals with T4, human hepcidin-22. The assay is described as above. On the procedure:
as §1, §2

Assay [9] addresses T1, human hepcidin-25. Description: SPR, 25 C, Mab captured, hepcidin-25 injected. The procedure: A SPR biosensor such as the BlAcore® T100 may be used to measure binding kinetics and affinity of antibodies such as the antibodies disclosed herein. The BIAcore® system utilizes the optical properties of SPR to detect alteration in protein concentration of interacting molecules within a dextran biosensor matrix. Except as noted, all reagents and materials are purchased from BIAcore® AB (Upsala, Sweden). All measurements are performed at 25° C. Samples are dissolved in HBS-EP buffer (150 mM sodium chloride, 3 mM EDTA, 0.05% (w/v) surfactant P-20, and 10 mM HEPES, pH 7.4). To capture Fabs with human kappa, goat-anti-human kappa is immobilized on flow cells 1 to 4 of a CMS sensor chip at a level of 5000-10000 response units (Rus) using an amine coupling kit. To capture Mabs with mouse IgG1, goat-anti-mouse Fc gamma is immobilized on flow cells 1 to 4 of a CMS sensor chip at a level of 5000-10000 Rus using an amine coupling kit. […] Fabs prepared from E. coli periplasma and Mabs prepared from mammalian cell culture are evaluated using multiple analytical cycles. […] The measurements are obtained at 25° C. and the association and dissociation rates for each cycle are evaluated using a “1:1 with mass transfer” binding model in the BIAevaluation software.

Assay [10] addresses T1, human hepcidin-25. As to the kind of experiment: SPR, 25 C.
Assay [11] deals with T1, human hepcidin-25. Description: immunoprecipitation from human serum on plate-coated antibody, acid elution, MALDI-TOF mass spectrometry (linear mode). An excerpt:
FIG. 3 depicts a MALDI-TOF mass spectrum of the forms of human hepcidin immunoprecipitated from human sera with the anti-hepcidin-25 selective Mab 5E8. Signal 1 has a mass which is consistent with the expected mass of intact human hepcidin-25 (2790 Da). […] The mass spectrum was generated on a MALDI-TOF mass spectrometer utilizing a positive ion, linear mode method with a-cyano-4-hydroxycinnamic acid (peptide matrix) as sample matrix essentially as described in Example 6 below.
Anti-human hepcidin Mabs or Fabs are coated onto separate wells of a 96-well standard ELISA plate in carbonate-bicarbonate (pH 9.4) buffer for 1 hour at room temperature at a concentration of 2 mg/L. The wells are then aspirated and washed 3 times with TBST. Human serum samples containing a known amount of hepcidin-25 (diluted in assay buffer) is added at 100 μl/well for one hour at room temperature. The wells are aspirated and washed 3 times with TBST. […] The sample is dried and analyzed with a 4700 TOF-TOF Mass Spectrometer (Applied Biosystems) operated in the linear mode.
(§3) Similar experiments were performed using MALDI-TOF spectrometry to determine which hepcidin species in human serum are bound by Mab 5E8. These experiments determined that Mab 5E8 bound only hepcidin-25 in human serum (FIGS. 3 and 4). […]

In assay [12] the target is T3, mouse hepcidin-25. Description: SPR, 25 C, Mab captured.
Assay [13] deals with T5, rat hepcidin-25. As to the kind of experiment: SPR, 25 C, Mab captured.
For assay [14], the target named is T2, human hepcidin-20. Description: immunoprecipitation from human serum, MALDI-TOF mass spectrometry. The procedure:
Anti-human hepcidin Mabs or Fabs are coated onto separate wells of a 96-well standard ELISA plate in carbonate-bicarbonate (pH 9.4) buffer for 1 hour at room temperature at a concentration of 2 mg/L. The wells are then aspirated and washed 3 times with TBST. Human serum samples containing a known amount of hepcidin-25 (diluted in assay buffer) is added at 100 μl/well for one hour at room temperature. The wells are aspirated and washed 3 times with TBST. Captured hepcidin polypeptides are eluted by adding 40 μL/well of 0.1% formic acid for 5 minutes at room temperature. The eluted samples are collected and concentrated with a C4 ZipTip™ (Millipore, Billerica, Mass.), a 10 μL pipette tip with a bed of chromatography media for purifying and concentrating femtomoles to picomoles of protein or peptides, ideally ranging from 25,000 MW to 100,000 MW. […] The sample is dried and analyzed with a 4700 TOF-TOF Mass Spectrometer (Applied Biosystems) operated in the linear mode.
as §3

Assay [15] addresses T1, human hepcidin-25. As to the kind of experiment: immunoprecipitation from human serum on plate-coated antibody, acid elution, MALDI-TOF mass spectrometry (linear mode). An excerpt:
(§4) Signal 1 has a mass which is consistent with the expected mass of intact human hepcidin-25 (approximate molecular weight (MW) of 2790 Daltons (Da)). Signal 2 has a mass which is consistent with the expected mass of intact human hepcidin-20 (MW of 2192 Da). […] The mass spectrum was generated on a MALDI-TOF mass spectrometer utilizing a positive ion, linear mode method with a-cyano-4-hydroxycinnamic acid (peptide matrix) as sample matrix essentially as described in Example 6 below.
(§5) Anti-human hepcidin Mabs or Fabs are coated onto separate wells of a 96-well standard ELISA plate in carbonate-bicarbonate (pH 9.4) buffer for 1 hour at room temperature at a concentration of 2 mg/L. The wells are then aspirated and washed 3 times with TBST. Human serum samples containing a known amount of hepcidin-25 (diluted in assay buffer) is added at 100 μl/well for one hour at room temperature. The wells are aspirated and washed 3 times with TBST. Captured hepcidin polypeptides are eluted by adding 40 μL/well of 0.1% formic acid for 5 minutes at room temperature. […] The sample is dried and analyzed with a 4700 TOF-TOF Mass Spectrometer (Applied Biosystems) operated in the linear mode.

The target in assay [16] is T2, human hepcidin-20. Described as above.
Source text: as §4, §5

In assay [17] the target is T1, human hepcidin-25. Description: SPR, Mab immobilized on CM4 chip. The procedure: The flow cells were then injected with human hepcidin-25. Next, the flow cells were injected with Mab 5E8.

Positions count from the first letter of the chain named.

B1: mouse monoclonal antibody 3A9 (antibody, mouse IgG1, kappa, V domains shown)
VH: EVKLVESGPGILQPSQTLSLTCSFSGFSLNSYGFGIGWIRQPSGKGLEWLTHIWWNGNKYYNTTLKSRLTISKDTSNNQVFLKIASLDTADTATYYCALIHYYGNSYGFAYWGQGTLVTVSA
VL: DIQMNQSPALMSASPGEKVTMTCSASSSVSSMYWYQQKPRSSPKPWIYLTSNLASGVPPRFSGSGSGTSYSLTISNMEAEDAATYYCQQWSSYPPTFGGGTKLEIKR
notes: also called Mab 3A9
With B1, in the assay with human hepcidin-25 [1], the binding result is reported as “binds”.

B2: mouse monoclonal antibody 4C11 (antibody, mouse IgG1, kappa, V domains shown)
VH: QVQLKQSGPGILQPSQTLSLTCSFSGFSLSTYGIGVGWIRQPAGKGLEWLAHIWWNDNKSYNTALKSRLTISKDTSNNQVFLKIASVDTTHTATYYCVVIGYYGSTSGFAYWGQGTLVTVSA
VL: B1 VL with D1Q, Q3L, M4L, N5T, S31Y, P59A, N76S, Y93N
notes: also called Mab 4C11
What is called Kd is a measure of binding affinity in units of concentration. Turning to B2, the binding result is reported as “no binding” with human hepcidin-20 [2], “binds” with mouse hepcidin-25 [3], “binds” with rat hepcidin-25 [5] and “binds” in the assay with human hepcidin-25 [6]. The dissociation constant Kd with human hepcidin-22 [4] was ~209 nM.

B3: mouse monoclonal antibody OH4 (antibody, mouse IgG1, kappa, V domains shown)
VH: EVKLVESGGGLVKPGGSLKISCAASGFAFSSYDMSWVRQTPEKRLEWVATIISGGTYTYYPDSVKGRFTISRDNARNTLNLQMSSLRAEDTALYYCADDGYIHWGQGTLVTVSA
VL: DIVMTQIPLTLSVTIGQPASISCKSSQSLLYPNGKTYLTWLLQRPGQSPKRLIYLVSKLDPGVPDRFTGSGSGADFTLKISRVEAEDLGIYYCIQGSHFPWTFGGGTKLELKR
notes: also called Mab OH4
B3: the binding result with human hepcidin-20 [7] and with human hepcidin-22 [8] was “no binding (tested: 10 ug/L)” throughout. Moreover, in the assay with human hepcidin-25 [9], the Kd was ~1.2 nM.

B4: mouse monoclonal antibody OB3 (antibody, mouse IgG1, kappa, V domains shown)
VH: B3 VH
VL: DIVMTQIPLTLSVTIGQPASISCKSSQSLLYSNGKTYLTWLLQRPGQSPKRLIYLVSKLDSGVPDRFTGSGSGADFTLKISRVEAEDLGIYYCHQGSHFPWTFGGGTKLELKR
With B4, the binding result with human hepcidin-25 [10] is on record as “binds”.

B5: mouse monoclonal antibody OB1 (antibody, mouse IgG1, kappa, V domains shown)
VH: B3 VH
VL: B3 VL with P32R, I94H
Turning to B5, the binding result with human hepcidin-25 [10] is listed as “binds”.

B6: mouse monoclonal antibody 5E8 (antibody, mouse IgG1, kappa, V domains shown)
VH: B3 VH
VL: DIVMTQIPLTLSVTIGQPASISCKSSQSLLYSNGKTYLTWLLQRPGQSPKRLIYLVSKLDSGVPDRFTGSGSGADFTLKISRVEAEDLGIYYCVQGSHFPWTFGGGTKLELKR
notes: also called Mab 5E8
On to B6, for which the binding result with human hepcidin-25 [11] is “binds”; with mouse hepcidin-25 [12] it was “no binding”; in the assay with rat hepcidin-25 [13] it was “no binding”; in the assay with human hepcidin-20 [14], “no binding”.

B7: mouse monoclonal antibody OE1 (antibody, mouse IgG1, kappa, V domains shown)
VH: B3 VH
VL: B3 VL with I94F, T102V
notes: also called 0E1
Regarding B7, the binding result with human hepcidin-25 [10] is listed as “binds”.

B8: Anti-hepcidin Mab 3.23 (antibody, human IgG4 S228P, kappa, V domains shown)
VH: QVQLVQSGAEVKKPGSSVKVSCKASGYTFLIYPISWVRQAPGQGLEWMGNFHPYLGVTNYVEKFKGRVTITADKSTSTAYMELSSLRSEDTAVYYCARGGTGSFDYWGQGTTVTVSS
VL: DIQMTQSPSSLSASVGDRVTITCSASSRVSSTYLFWYQQKPGKAPKLLIYRTSPLASGVPSRFSGSGSGTDFTLTISSLQPEDFATYYCQQWSGYPFVFGGGTKVEIKR
As to B8, the binding result in the assay with human hepcidin-25 [15] and with human hepcidin-20 [16] was “binds” each time.

B9: Anti-hepcidin Mab 3.12 (antibody, human IgG4 S228P, kappa, V domains shown)
VH: B8 VH with V61L
VL: B8 VL with P54T, A56T
On to B9, for which the binding result with human hepcidin-25 [17] is on record as “binds”.

The values above are taken from patent US20110189190A1 (Eli Lilly, published 2011).
